According to publication PMC6378725 (BMC Biotechnology, 2019):
Changes are numbered by the printed parent chain. In names and notes the source's numbering stands.

Key:
[1] = target: T1, HLA-A2 on stably transfected B721.221 cells (Homo sapiens, HLA-A*02:01, strain); test: flow cytometry on cells; 150,000 BLCL cells with various concentrations of purified mAbs in PBS 0.5% BSA, 30 min at room temperature; PE goat anti-human IgG; conditions: one partner purified
T1 construct: beta-2-microglobulin of the cells; also called 721.221(A2); B721.221 A2; source: B721.221 cells, stably transfected, on the cell surface; copies: + +

[2] = target: T2, HLA-A*02:01 on BLCL HEN cells (Homo sapiens, HLA-A*02:01, strain); test: as above; conditions: one partner purified
T2 construct: HLA-A*02:01 naturally expressed on BLCL HEN; beta-2-microglobulin of the cells; also called BLCL HEN expressing HLA-A2; source: endogenous, on BLCL HEN cells (HLA-A*02:01/ HLA-A*0101); copies: + +

[3] = target: T3, HLA-A*02:01 on a single antigen bead (Homo sapiens, HLA-A*02:01, strain); test: single antigen flow bead assay (Luminex); LabScreen single-antigen LS1A04 beads with 97 MHC class I alleles, Luminex 100 analyser; positivity threshold MFI 1000; conditions: both partners purified
T3 construct: beta-2-microglobulin; source: bought: One Lambda (LabScreen single-antigen LS1A04); copies: + +

Measured: binding result

B1: C4.4 (antibody, V domains shown)
VH: EVQLVESGAEVKKPGESLKISCKASGYRFTNYWIGWVRQMPGKGLEWMGIIYPYHSDTQYTPSFQGQVTISADESTTTAYLHLSSLKASDTAIYYCVRLRGDFVPVVFAPYFDSWGQGTLVT
VL: QSALTQPRSVSGSPGQSVTISCTGSRSDAHTFNYVSWYQQHPGKAPKLMICDVNQRPSGVPDRFSGSKSGDAASLTISGLQAEDEADYYCFSYDANYTLGVFGTGTKVTVL
notes: numbers count on: the heavy chain from the first amino acid of its leader peptide; human heavy chain constant domains of the IgG-AbVec expression vector; human lambda light chain constant domain of the Iglambda-AbVec expression vector; Only the heavy chain was mutated; also called cluster D74H//S80 T//W102 L//M112I//G121D//R124P
binds: all assays above

B2: C4.18 (antibody, V domains shown)
VH: B1 VH with T61S
VL: B1 VL
notes: numbers count on: the heavy chain from the first amino acid of its leader peptide; human heavy chain constant domains of the IgG-AbVec expression vector; human lambda light chain constant domain of the Iglambda-AbVec expression vector; Only the heavy chain was mutated; also called cluster D74H//W102 L//M112I//G121D//R124P
binds: all assays above
